Source: patent publication US20250368745A1 (published 2025)
Numbering of substitutions follows the chain as printed. Values joined by “and” are separate entries in the source; they are usually repeats but may differ in a detail not shown here. Equal entries are not always repeated. Where two headings read alike, the source gives them in different places.

Key:
[1] = molecular target: T1, mouse IL-18BP (mouse, UniProt Q9Z0M9 29-193); assay: BLI (Octet), mAb on AHC biosensor
T1 construct: also called mIL-18BP
T1 sequence: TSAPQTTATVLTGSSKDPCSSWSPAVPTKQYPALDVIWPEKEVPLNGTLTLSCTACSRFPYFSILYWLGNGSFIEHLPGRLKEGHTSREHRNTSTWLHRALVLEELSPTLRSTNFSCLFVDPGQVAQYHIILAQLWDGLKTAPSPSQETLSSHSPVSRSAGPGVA

[2] = molecular target: T2, cynomolgus IL-18BP (cynomolgus monkey); assay: BLI (Octet), mAb on AHC biosensor
T2 construct: Generated in-house; also called cyIL-18BP; cyno IL-18BP
T2 chain: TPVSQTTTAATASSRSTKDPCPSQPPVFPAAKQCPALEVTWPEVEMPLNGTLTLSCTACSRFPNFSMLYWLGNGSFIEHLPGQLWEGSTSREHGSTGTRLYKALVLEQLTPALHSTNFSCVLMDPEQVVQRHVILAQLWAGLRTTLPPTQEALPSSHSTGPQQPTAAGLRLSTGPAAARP

[3] = molecular target: T3, human IL-18BP (interleukin-18 binding protein, isoform A) (human, UniProt O95998 31-194); assay: BLI (Octet), mAb on AHC biosensor
T3 construct: cell assays used Sino Biological 10357-H08H; PBMC assay 1 relies on endogenous IL-18BP; UniProt number is printed as 095998; also called hIL-18BP
T3 sequence: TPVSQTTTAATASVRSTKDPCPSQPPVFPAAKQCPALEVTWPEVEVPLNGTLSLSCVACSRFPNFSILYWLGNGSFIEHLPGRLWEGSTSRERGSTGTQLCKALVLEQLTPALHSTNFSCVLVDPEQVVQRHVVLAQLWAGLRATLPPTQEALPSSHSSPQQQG

[4] = molecular target: T2, cynomolgus IL-18BP; assay: BLI (Octet), mAb on AHC biosensor
[5] = molecular target: T3, human IL-18BP (interleukin-18 binding …); assay: BLI (Octet), mAb on AHC biosensor; remark: listed apart in the source
[6] = molecular target: T2, cynomolgus IL-18BP; assay: ratio of BLI KDs, cyno against human IL-18BP
[7] = molecular target: T2, cynomolgus IL-18BP; assay: BLI (Octet), mAb on AHC biosensor
[8] = molecular target: T3, human IL-18BP (interleukin-18 binding …); assay: BLI (Octet), mAb on AHC biosensor; remark: listed apart in the source
[9] = molecular target: T2, cynomolgus IL-18BP; assay: ratio of BLI KDs for cyno and human IL-18BP
[10] = molecular target: T2, cynomolgus IL-18BP; assay: BLI (Octet), mAb on AHC biosensor
[11] = molecular target: T3, human IL-18BP (interleukin-18 binding …); assay: BLI (Octet), mAb on AHC biosensor; remark: listed apart in the source
[12] = molecular target: T1, mouse IL-18BP; assay: BLI (Octet), mAb on AHC biosensor; remark: listed apart in the source
[13] = molecular target: T2, cynomolgus IL-18BP; assay: BLI (Octet), mAb on AHC biosensor
[14] = molecular target: T3, human IL-18BP (interleukin-18 binding …); assay: BLI (Octet), mAb on AHC biosensor; remark: listed apart in the source
[15] = molecular target: hypo-IL-18 (IL-18 tethered to IL-18BP by a flexible linker with TEV site, 6xHis) (human); assay: BLI
Chain of hypo-IL-18 (IL-18 tethered to IL-18BP by a flexible linker with TEV site, 6xHis) (human) (chain, as listed by the source limits assumed): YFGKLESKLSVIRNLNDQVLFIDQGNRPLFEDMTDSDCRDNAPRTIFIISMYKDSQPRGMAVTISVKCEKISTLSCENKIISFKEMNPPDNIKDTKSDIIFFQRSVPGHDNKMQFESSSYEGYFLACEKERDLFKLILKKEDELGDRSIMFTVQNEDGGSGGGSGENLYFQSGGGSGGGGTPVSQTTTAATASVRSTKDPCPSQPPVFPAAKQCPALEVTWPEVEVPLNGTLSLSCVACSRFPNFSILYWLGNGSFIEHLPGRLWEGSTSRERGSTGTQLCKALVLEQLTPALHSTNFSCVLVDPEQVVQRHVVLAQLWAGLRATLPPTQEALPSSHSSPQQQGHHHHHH

[16] = molecular target: T1, mouse IL-18BP; assay: BLI (Octet), mAb on AHC biosensor; remark: listed apart in the source
[17] = molecular target: T2, cynomolgus IL-18BP; assay: BLI single-concentration screen, apparent KD
[18] = molecular target: T3, human IL-18BP (interleukin-18 binding …); assay: BLI single-concentration screen, apparent KD
[19] = molecular target: T3, human IL-18BP (interleukin-18 binding …); assay: cell-based or functional assay
[20] = molecular target: T3, human IL-18BP (interleukin-18 binding …); assay: cell-based or functional assay; remark: listed apart in the source
[21] = molecular target: T3, human IL-18BP (interleukin-18 binding …); assay: cell-based or functional assay; remark: listed apart in the source
[22] = molecular target: T1, mouse IL-18BP; assay: BLI (Octet), mAb on AHC biosensor; remark: listed apart in the source

B1: SA50a (antibody, human IgG1, V domains shown)
VH: QVQLVQSGSELKKPGASVKVSCKASVYTFTEYPMHWLRQAPGQGFEWMGWIHTYSGEPTYADDFKGRFVFSLDTSVSTAYLQISSLKAEDTAVYFCARGRYYGALDYWGQGTALTVSS
VL: DIQMTQSPSSLSASVGDRVTITCRASQDISNYLNWYQQKPGKAVKLLIYYTSRLHSGVPSRFSGSGSGTDYTFTISSLQPEDIATYFCQHGNTLPRTFGGGTKLEIK
notes: humanized; human IgG1 (suffix a), kappa; also called humanized SA04a
[1]
  binding result: no binding
[2]
  Kd: 4.27 nM
[3]
  Kd: 0.41 nM

B2: SA44a (antibody, human IgG1, V domains shown)
VH: DVQLQESGPDLVKPSQSLSLTCTVTGYSITSDYNCHWIRQFPGNKLEWMGYIHYSGSTNYNPSLKSRISITRDTSKNQFFLQLNSVTAEDTATYYCARNYGSIYVNYFDYWGQGTTLTVSS
VL: QIVLTQSPAIMSASPGEKVTISCSASSSVSYMYWYQQEPGSSPKPWIYRTSNLASGVPPRFSGSGSGTSYSLTISSMEAEDAATYFCQQYHSYPTFGGGTKLEIK
notes: murine variable regions on human IgG1 kappa constant regions
[4]
  Kd: 0.525 nM
[5]
  Kd: 0.688 nM
[6]
  Cyno/human: 0.76 ratio
[7]
  Kd: 0.524 nM
[8]
  Kd: 0.685 nM
[9]
  Human/Cyno Fold Difference: 1 fold
[10]
  Kd: 0.67 nM
[11]
  Kd: 0.51 nM
[12]
  binding result: no binding
[13]
  Kd: 0.525 nM
[14]
  Kd: 0.688 nM
[15]
  binding result: no binding

B3: SA301a (antibody, human IgG1, V domains shown)
VH: QVQLQESGPGLVKPSQTLSLTCTVSGYSITSDYNSHWIRQPPGKGLEWIGYIHYSGSTNYNPSLKSRVTISRDTSKNQFSLKLSSVTAADTAVYYCARNYGSIYVNYFDYWGQGTLVTVSS
VL: EIVLTQSPATLSLSPGERATLSCSASSSVSYMYWYQQKPGQAPRPLIYRTSNLASGIPARFSGSGSGTDFTLTISSLEPEDFAVYYCQQYHSYPTFGGGTKVEIK
notes: humanized; human IgG1 (suffix a), kappa; also called humanized SA44a
[16]
  binding result: no binding
[4]
  Kd: 0.078 nM
[5]
  Kd: 0.162 nM
[17]
  Kd: 0.1 nM and 0.2 nM
[18]
  Kd: 0.2 nM and 0.3 nM
[6]
  Cyno/human: 0.47 ratio
[7]
  Kd: 0.102 nM
[8]
  Kd: 0.217 nM
[19]
  EC50 in PBMC Assay 1 (endogenous IL-18BP), IFNγ: 2 nM
[20]
  EC50 (nM), KG-1 Assay (IFNγ): 1.3 nM

B4: SA04a (antibody, human IgG1, V domains shown)
VH: QIQFVQSGPEVKTPGETVKISCKASVYTFTEYPMHWLKQAPGEDFEWMGWIHTYSGEPTYADDFKGRFAFSLETSASTAYLQINNLKTEDTATYFCARGRYYGALDYWGQGTALT
VL: DIQMTQTPSSLSASLGDRVTISCRASQDISNYLNWYQQKPDGTVKLLIYYTSRLHSGVPSRFSGSGSGTDYSLTISNLEQEDVATYFCQHGNTLPRTFGGGTKLEIK
notes: as for B2
[21]
  EC50 (nM), HEK293 IL-18 Reporter Assay (SEAP): 0.1 nM
[2]
  Kd: 1.5 nM
[3]
  Kd: 0.26 nM
[9]
  Human/Cyno Fold Difference: 5.8 fold
[10]
  Kd: 0.67 nM
[11]
  Kd: 0.25 nM
[13]
  Kd: 1.5 nM
[14]
  Kd: 0.26 nM
[20]
  EC50 (nM), KG-1 Assay (IFNγ): 2.6 nM
[15]
  binding result: no binding

B5: SA35a (antibody, human IgG1, V domains shown)
VH: QVQLQQSGAELVRPGVSVKISCKGSGYTFTDYPMHWVKQSHAKSLEWIGVISTYYGDASYNQKFKGKATMTVDKSSSTAYMELARLTSEDSAIYYCARWRGSFDYWGQGTTLTVSS
VL: ENVLTQSPAIMSASPGEKVTMTCRASSSVSSSYLHWYQQKSGASPKLWIYSTSNLASGVPARFSGSGSGTSYSLTISSVEAEDAATYYCQQYSGYHTFGGGTKLEIK
notes: as for B2
[21]
  EC50 (nM), HEK293 IL-18 Reporter Assay (SEAP): 21 nM
[10]
  Kd: 13 nM
[11]
  Kd: 11 nM
[20]
  EC50 (nM), KG-1 Assay (IFNγ): 103 nM
[15]
  binding result: no binding

B6: SA34a (antibody, human IgG1, V domains shown)
VH: QVQLQQSGAELARPGASVKLSCKASGYTFTDYYINWVKQRTGQGLEWIGEIYPGSGNTYYNEKFKGKATLTADKSSSTAYMQLSSLTSEDSAVYFCARGYYGRFAYWGQGTLVTVSA
VL: DIVMTQAAFSNPVTLGTSASISCRSSKSLLHSNGITYLYWYLQKPGQSPQLLIYQMSNLASGVPDRFSSSGSGTDFTLRISRVEAEDVGVYYCDQNLELPFTFGSGTKLEIK
notes: as for B2
[21]
  EC50 (nM), HEK293 IL-18 Reporter Assay (SEAP): 5.02 nM
[10]
  Kd: 12 nM
[11]
  Kd: 18 nM
[20]
  EC50 (nM), KG-1 Assay (IFNγ): 51 nM
[15]
  binding result: no binding

B7: SA31a (antibody, human IgG1, V domains shown)
VH: QVQLQQPGSELVRPGASVKLSCKASGYTFTSYWMHWVKQRPGQGLEWIGNIYPGSGNTIYDEKFKSKATLTVDTSSSTAYMQLSSLTSEDSAVYYCTRWDNWEGYYFDYWGQGTTLTVSS
VL: B6 VL with D94A, F101W, S105G
notes: as for B2
[21]
  EC50 (nM), HEK293 IL-18 Reporter Assay (SEAP): 2.62 nM
[10]
  Kd: 5 nM
[11]
  Kd: 3 nM
[20]
  EC50 (nM), KG-1 Assay (IFNγ): 185 nM
[15]
  binding result: no binding

B8: SA07a (antibody, human IgG1, V domains shown)
VH: EVQLQQSGPELVKPGASVKISCKASGYTFTDYYMNWVKQSHGKSLEWIGDINPNNGGTSYNQKFKGKATLTVDKSSNTAYMELRSLTSEDSAVYYCAREGVYSNYGGYFDYWGQGTTLTVSS
VL: QIVLTQSPALMSASPGEKVTMTCSASSSVSYMYWYQQKPRSSPKPWIYLTSNLASGVPARFSGSGSGTSYSLTISSMEAEDAATYYCQQWSSNPPTFGSGTKLEIK
notes: as for B2
[22]
  binding result: no binding
